Experimental data taken from patent publication US12099068B2, “Biomarkers for graft-versus-host disease” (Incyte Corporation, priority 2018, dated 2024).

System: plasma proteins
Assay: Plasma proteins modulated between baseline and day 28 in responders (CR, VGPR, PR; n = 19), Example 6 (Table 13)
Format: in vivo, human
Conditions: plasma protein (OLINK NPX); responders (CR, VGPR, PR; n = 19); itacitinib 200 mg or 300 mg QD with corticosteroids; day 28 vs baseline
How it was run: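 Plasma at baseline/screening and day 28 profiled for >1000 proteins by OLINK proximity extension assay, reported as NPX (log2). Steroid-naive and steroid-refractory patients pooled. Paired and unpaired t tests, ANOVA and Pearson correlation applied; significance at P<0.05.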

B1: SELP (protein, UniProt P16109 42-830, looked up)
P-selectin: WTYHYSTKAYSWNISRKYCQNRYTDLVAIQNKNEIDYLNKVLPYYSSYYWIGIRKNNKTWTWVGTKKALTNEAENWADNEPNNKRNNEDCVEIYIKSPSAPGKWNDEHCLKKKHALCYTASCQDMSCSKQGECLETIGNYTCSCYPGFYGPECEYVRECGELELPQHVLMNCSHPLGNFSFNSQCSFHCTDGYQVNGPSKLECLASGIWTNKPPQCLAAQCPPLKIPERGNMTCLHSAKAFQHQSSCSFSCEEGFALVGPEVVQCTASGVWTAPAPVCKAVQCQHLEAPSEGTMDCVHPLTAFAYGSSCKFECQPGYRVRGLDMLRCIDSGHWSAPLPTCEAISCEPLESPVHGSMDCSPSLRAFQYDTNCSFRCAEGFMLRGADIVRCDNLGQWTAPAPVCQALQCQDLPVPNEARVNCSHPFGAFRYQSVCSFTCNEGLLLVGASVLQCLATGNWNSVPPECQAIPCTPLLSPQNGTMTCVQPLGSSSYKSTCQFICDEGYSLSGPERLDCTRSGRWTDSPPMCEAIKCPELFAPEQGSLDCSDTRGEFNVGSTCHFSCDNGFKLEGPNNVECTTSGRWSATPPTCKGIASLPTPGVQCPALTTPGQGTMYCRHHPGTFGFNTTCYFGCNAGFTLIGDSTLSCRPSGQWTAVTPACRAVKCSELHVNKPIAMNCSNLWGNFSYGSICSFHCLEGQLLNGSAQTACQENGHWSTTVPTCQAGPLTIQEALTYFGGAVASTIGLIMGGTLLALLRKRFRQKDDGKCPLNPHSHLGTYGVFTNAAFDPSP
Fold Change, Decreased Expression from Baseline to Day 28: −1.9244

B2: CLUL1 (protein, UniProt Q15846 21-466, looked up)
Clusterin-like protein 1: APTWKDKTAISENLKSFSEVGEIDADEEVKKALTGIKQMKIMMERKEKEHTNLMSTLKKCREEKQEALKLLNEVQEHLEEEERLCRESLADSWGECRSCLENNCMRIYTTCQPSWSSVKNKIERFFRKIYQFLFPFHEDNEKDLPISEKLIEEDAQLTQMEDVFSQLTVDVNSLFNRSFNVFRQMQQEFDQTFQSHFISDTDLTEPYFFPAFSKEPMTKADLEQCWDIPNFFQLFCNFSVSIYESVSETITKMLKAIEDLPKQDKAPDHGGLISKMLPGQDRGLCGELDQNLSRCFKFHEKCQKCQAHLSEDCPDVPALHTELDEAIRLVNVSNQQYGQILQMTRKHLEDTAYLVEKMRGQFGWVSELANQAPETEIIFNSIQVVPRIHEGNISKQDETMMTDLSILPSSNFTLKIPLEESAESSNFIGYVVAKALQHFKEHFKTW
Fold Change, Increased Expression from Baseline to Day 28: 1.3108

B3: CXCL16 (protein, UniProt Q9H2A7 30-254, looked up)
C-X-C motif chemokine 16: NEGSVTGSCYCGKRISSDSPPSVQFMNRLRKHLRAYHRCLYYTRFQLLSWSVCGGNKDPWVQELMSCLDLKECGHAYSGIVAHQKHLLPTSPPISQASEGASSDIHTPAQMLLSTLQSTQRPTLPVGSLSSDKELTRPNETTIHTAGHSLAAGPEAGENQKQPEKNAGPTARTSATVPVLCLLAIIFILTAALSYVLCKRRRGQSPQSSPDLPVHYIPVAPDSNT
Fold Change, Increased Expression from Baseline to Day 28: 1.2028

B4: DAPP1 (protein, UniProt Q9UN19 1-280, looked up)
Dual adapter for …: MGRAELLEGKMSTQDPSDLWSRSDGEAELLQDLGWYHGNLTRHAAEALLLSNGCDGSYLLRDSNETTGLYSLSVRAKDSVKHFHVEYTGYSFKFGFNEFSSLKDFVKHFANQPLIGSETGTLMVLKHPYPRKVEEPSIYESVRVHTAMQTGRTEDDLVPTAPSLGTKEGYLTKQGGLVKTWKTRWFTLHRNELKYFKDQMSPEPIRILDLTECSAVQFDYSQERVNCFCLVFPFRTFYLCAKTGVEADEWIKILRWKLSQIRKQLNQGEGTIRSRSFIFK
Fold Change, Decreased Expression from Baseline to Day 28: −1.3805

B5: TMPRSS5 (protein, UniProt Q9H3S3 1-457, looked up)
Transmembrane protease serine …: MSLMLDDQPPMEAQYAEEGPGPGIFRAEPGDQQHPISQAVCWRSMRRGCAVLGALGLLAGAGVGSWLLVLYLCPAASQPISGTLQDEEITLSCSEASAEEALLPALPKTVSFRINSEDFLLEAQVRDQPRWLLVCHEGWSPALGLQICWSLGHLRLTHHKGVNLTDIKLNSSQEFAQLSPRLGGFLEEAWQPRNNCTSGQVVSLRCSECGARPLASRIVGGQSVAPGRWPWQASVALGFRHTCGGSVLAPRWVVTAAHCMHSFRLARLSSWRVHAGLVSHSAVRPHQGALVERIIPHPLYSAQNHDYDVALLRLQTALNFSDTVGAVCLPAKEQHFPKGSRCWVSGWGHTHPSHTYSSDMLQDTVVPLFSTQLCNSSCVYSGALTPRMLCAGYLDGRADACQGDSGGPLVCPDGDTWRLVGVVSWGRGCAEPNHPGVYAKVAEFLDWIHDTAQDSLL
Fold Change, Increased Expression from Baseline to Day 28: 1.3307

B6: PRDX5 (protein, UniProt P30044 53-214, looked up)
Peroxiredoxin-5, mitochondrial: MAPIKVGDAIPAVEVFEGEPGNKVNLAELFKGKKGVLFGVPGAFTPGCSKTHLPGFVEQAEALKAKGVQVVACLSVNDAFVTGEWGRAHKAEGKVRLLADPTGAFGKETDLLLDDSLVSIFGNRRLKRFSMVVQDGIVKALNVEPDGTGLTCSLAPNIISQL
Fold Change, Decreased Expression from Baseline to Day 28: −2.0131

B7: TLT-2 (protein, UniProt Q5T2D2 19-321, looked up)
Trem-like transcript 2 protein: GPSADSVYTKVRLLEGETLSVQCSYKGYKNRVEGKVWCKIRKKKCEPGFARVWVKGPRYLLQDDAQAKVVNITMVALKLQDSGRYWCMRNTSGILYPLMGFQLDVSPAPQTERNIPFTHLDNILKSGTVTTGQAPTSGPDAPFTTGVMVFTPGLITLPRLLASTRPASKTGYSFTATSTTSQGPRRTMGSQTVTASPSNARDSSAGPESISTKSGDLSTRSPTTGLCLTSRSLLNRLPSMPSIRHQDVYSTVLGVVLTLLVLMLIMVYGFWKKRHMASYSMCSDPSTRDPPGRPEPYVEVYLI
Fold Change, Decreased Expression from Baseline to Day 28: −1.8372

B8: hK11 (protein, UniProt Q9UBX7 54-282, looked up)
Kallikrein-11: IIKGFECKPHSQPWQAALFEKTRLLCGATLIAPRWLLTAAHCLKPRYIVHLGQHNLQKEEGCEQTRTATESFPHPGFNNSLPNKDHRNDIMLVKMASPVSITWAVRPLTLSSRCVTAGTSCLISGWGSTSSPQLRLPHTLRCANITIIEHQKCENAYPGNITDTMVCASVQEGGKDSCQGDSGGPLVCNQSLQGIISWGQDPCAITRKPGVYTKVCKYVDWIQETMKNN
Fold Change, Increased Expression from Baseline to Day 28: 1.2975

B9: IL2-RA (protein, UniProt P01589 22-272, looked up)
Interleukin-2 receptor …: ELCDDDPPEIPHATFKAMAYKEGTMLNCECKRGFRRIKSGSLYMLCTGNSSHSSWDNQCQCTSSATRNTTKQVTPQPEEQKERKTTEMQSPMQPVDQASLPGHCREPPPWENEATERIYHFVVGQMVYYQCVQGYRALHRGPAESVCKMTHGKTRWTQPQLICTGEMETSQFPGEEKPQASPEGRPESETSCLVTTTDFQIQTEMAATMETSIFTTEYQVAVAGCVFLLISVLLLSGLTWQRRQRKSRRTI
Fold Change, Decreased Expression from Baseline to Day 28: −2.2452

B10: SCGB3A1 (protein, UniProt Q96QR1 21-104, looked up)
Secretoglobin family 3A …: FLVGSAKPVAQPVAALESAAEAGAGTLANPLGTLNPLKLLLSSLGIPVNHLIEGSQKCVAELGPQAVGAVKALKALLGALTVFG
Fold Change, Increased Expression from Baseline to Day 28: 1.5691

B11: FOXO1 (protein, UniProt Q12778 1-655, looked up)
Forkhead box protein O1: MAEAPQVVEIDPDFEPLPRPRSCTWPLPRPEFSQSNSATSSPAPSGSAAANPDAAAGLPSASAAAVSADFMSNLSLLEESEDFPQAPGSVAAAVAAAAAAAATGGLCGDFQGPEAGCLHPAPPQPPPPGPLSQHPPVPPAAAGPLAGQPRKSSSSRRNAWGNLSYADLITKAIESSAEKRLTLSQIYEWMVKSVPYFKDKGDSNSSAGWKNSIRHNLSLHSKFIRVQNEGTGKSSWWMLNPEGGKSGKSPRRRAASMDNNSKFAKSRSRAAKKKASLQSGQEGAGDSPGSQFSKWPASPGSHSNDDFDNWSTFRPRTSSNASTISGRLSPIMTEQDDLGEGDVHSMVYPPSAAKMASTLPSLSEISNPENMENLLDNLNLLSSPTSLTVSTQSSPGTMMQQTPCYSFAPPNTSLNSPSPNYQKYTYGQSSMSPLPQMPIQTLQDNKSSYGGMSQYNCAPGLLKELLTSDSPPHNDIMTPVDPGVAQPNSRVLGQNVMMGPNSVMSTYGSQASHNKMMNPSSHTHPGHAQQTSAVNGRPLPHTVSTMPHTSGMNRLTQVKTPVQVPLPHPMQMSALGGYSSVSSCNGYGRMGLLHQEKLPSDLDGMFIERLDCDMESIIRNDLMDGDTLDFNFDNVLPNQSFPHSVKTTTHSWVSG
Fold Change, Decreased Expression from Baseline to Day 28: −1.3557

B12: DKKL1 (protein, UniProt Q9UK85 31-242, looked up)
Dickkopf-like protein 1: APIHDADAQESSLGLTGLQSLLQGFSRLFLKGNLLRGIDSLFSAPMDFRGLPGNYHKEENQEHQLGNNTLSSHLQIDKMTDNKTGEVLISENVVASIQPAEGSFEGDLKVPRMEEKEALVPIQKATDSFHTELHPRVAFWIIKLPRRRSHQDALEGGHWLSEKRHRLQAIRDGLRKGTHKDVLEEGTESSSHSRLSPRKTHLLYILRPSRQL
Fold Change, Increased Expression from Baseline to Day 28: 1.1495

B13: ST1A1 (protein, UniProt P50225 1-295, looked up)
Sulfotransferase 1A1: MELIQDTSRPPLEYVKGVPLIKYFAEALGPLQSFQARPDDLLISTYPKSGTTWVSQILDMIYQGGDLEKCHRAPIFMRVPFLEFKAPGIPSGMETLKDTPAPRLLKTHLPLALLPQTLLDQKVKVVYVARNAKDVAVSYYHFYHMAKVHPEPGTWDSFLEKFMVGEVSYGSWYQHVQEWWELSRTHPVLYLFYEDMKENPKREIQKILEFVGRSLPEETVDFVVQHTSFKEMKKNPMTNYTTVPQEFMDHSISPFMRKGMAGDWKTTFTVAQNERFDADYAEKMAGCSLSFRSEL
Fold Change, Decreased Expression from Baseline to Day 28: −1.9523

B14: NEP (protein, UniProt P08473 2-750, looked up)
Neprilysin: GKSESQMDITDINTPKPKKKQRWTPLEISLSVLVLLLTIIAVTMIALYATYDDGICKSSDCIKSAARLIQNMDATTEPCTDFFKYACGGWLKRNVIPETSSRYGNFDILRDELEVVLKDVLQEPKTEDIVAVQKAKALYRSCINESAIDSRGGEPLLKLLPDIYGWPVATENWEQKYGASWTAEKAIAQLNSKYGKKVLINLFVGTDDKNSVNHVIHIDQPRLGLPSRDYYECTGIYKEACTAYVDFMISVARLIRQEERLPIDENQLALEMNKVMELEKEIANATAKPEDRNDPMLLYNKMTLAQIQNNFSLEINGKPFSWLNFTNEIMSTVNISITNEEDVVVYAPEYLTKLKPILTKYSARDLQNLMSWRFIMDLVSSLSRTYKESRNAFRKALYGTTSETATWRRCANYVNGNMENAVGRLYVEAAFAGESKHVVEDLIAQIREVFIQTLDDLTWMDAETKKRAEEKALAIKERIGYPDDIVSNDNKLNNEYLELNYKEDEYFENIIQNLKFSQSKQLKKLREKVDKDEWISGAAVVNAFYSSGRNQIVFPAGILQPPFFSAQQSNSLNYGGIGMVIGHEITHGFDDNGRNFNKDGDLVDWWTQQSASNFKEQSQCMVYQYGNFSWDLAGGQHLNGINTLGENIADNGGLGQAYRAYQNYIKKNGEEKLLPGLDLNHKQLFFLNFAQVWCGTYRPEYAVNSIKTDVHSPGNFRIIGTLQNSAEFSEAFHCRKNSYMNPEKKCRVW
Fold Change, Increased Expression from Baseline to Day 28: 1.8376
